± gives the standard error. Fewer inactive variants are shown than the library holds.
B1: glmS ribozyme (parent)
chain: AUAAAAGCGCCAGAACUACAGAAAUGUAGUUGACGAGGAGGAGGUUUAUCGAAUUUUCGGCGGAUGCCUCCAAA

Assays:
Conditions in all cases: with glucosamine-6-phosphate
[1] = variants of: B1; test: self-cleavage kobs at 40 uM GlcN6P; higher = faster cleavage; RNA array
Method in brief: (§1)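 Using a hybridised Cy3 probe at 37 °C, barcoded ribozyme variants transcribed in situ by E. coli RNA polymerase on sequenced MiSeq chips were monitored across tiles imaged over ~14 h. The flow contained glucosamine-6-phosphate from 40 μM to 10 mM in HEPES/KCl/Mg(OAc)2 buffer. Signals were normalised to baseline and to non-cleaving reference variants before per-tile medians were fit to one- or two-exponential decays to yield kobs. Weighted Michaelis–Menten fits across concentrations gave kcat and KM.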

[2] = variants of: B1; test: self-cleavage kobs at 160 uM GlcN6P; higher = faster cleavage; RNA array
Method in brief: as §1

[3] = variants of: B1; test: self-cleavage kobs at 640 uM GlcN6P; higher = faster cleavage; RNA array
Method in brief: as §1

[4] = variants of: B1; test: self-cleavage kobs at 10000 uM GlcN6P; higher = faster cleavage; RNA array
Method in brief: as §1

[5] = variants of: B1; test: self-cleavage kobs at 2500 uM GlcN6P; higher = faster cleavage; RNA array
Method in brief: as §1

**Q.** With U30G G62C as the variant, how does the “self-cleavage kobs at 40 uM GlcN6P” value [1] read?
**A.** < 1e-05 s⁻¹

**Q.** And the “self-cleavage kobs at 160 uM GlcN6P” value [2]?
**A.** < 1e-05 s⁻¹

**Q.** What about the “self-cleavage kobs at 640 uM GlcN6P” value [3] of the same variant?
**A.** < 1e-05 s⁻¹

**Q.** And the “self-cleavage kobs at 10000 uM GlcN6P” value [4]?
**A.** < 1e-05 s⁻¹

**Q.** C8U A52U C58U A64C C70U was tested. Which “self-cleavage kobs at 40 uM GlcN6P” value [1] did it give?
**A.** < 1e-05 s⁻¹

**Q.** And the “self-cleavage kobs at 160 uM GlcN6P” value [2]?
**A.** < 1e-05 s⁻¹

**Q.** What about the “self-cleavage kobs at 2500 uM GlcN6P” value [5] of the same variant?
**A.** < 1e-05 s⁻¹

**Q.** Which results are given for G40A C58G C70U?
**A.** self-cleavage kobs at 40 uM GlcN6P [1]: < 1e-05 s⁻¹; self-cleavage kobs at 10000 uM GlcN6P [4]: < 1e-05 s⁻¹

**Q.** How did the “self-cleavage kobs at 40 uM GlcN6P” value [1] turn out when G9C U54A was run?
**A.** < 1e-05 s⁻¹

**Q.** And the “self-cleavage kobs at 160 uM GlcN6P” value [2]?
**A.** < 1e-05 s⁻¹

**Q.** And the “self-cleavage kobs at 10000 uM GlcN6P” value [4]?
**A.** < 1e-05 s⁻¹

**Q.** With C34G A42U as the variant, how does the “self-cleavage kobs at 40 uM GlcN6P” value [1] read?
**A.** < 1e-05 s⁻¹

**Q.** What about the “self-cleavage kobs at 160 uM GlcN6P” value [2] of the same variant?
**A.** < 1e-05 s⁻¹

**Q.** And the “self-cleavage kobs at 640 uM GlcN6P” value [3]?
**A.** < 1e-05 s⁻¹

**Q.** What about the “self-cleavage kobs at 2500 uM GlcN6P” value [5] of the same variant?
**A.** < 1e-05 s⁻¹

**Q.** And the “self-cleavage kobs at 10000 uM GlcN6P” value [4]?
**A.** < 1e-05 s⁻¹

**Q.** Which “self-cleavage kobs at 40 uM GlcN6P” value [1] does the source give for G32C G40A C50U C68A here?
**A.** < 1e-05 s⁻¹

**Q.** And the “self-cleavage kobs at 10000 uM GlcN6P” value [4]?
**A.** < 1e-05 s⁻¹

**Q.** What does the source list for G41U C50A U57A?
**A.** self-cleavage kobs at 40 uM GlcN6P [1]: < 1e-05 s⁻¹; self-cleavage kobs at 10000 uM GlcN6P [4]: < 1e-05 s⁻¹

**Q.** A12G G13C A33U G63U was tested. Which “self-cleavage kobs at 40 uM GlcN6P” value [1] did it give?
**A.** < 1e-05 s⁻¹

**Q.** What about the “self-cleavage kobs at 10000 uM GlcN6P” value [4] of the same variant?
**A.** < 1e-05 s⁻¹

**Q.** With C8G G63U as the variant, how does the “self-cleavage kobs at 40 uM GlcN6P” value [1] read?
**A.** < 1e-05 s⁻¹

**Q.** What about the “self-cleavage kobs at 10000 uM GlcN6P” value [4] of the same variant?
**A.** < 1e-05 s⁻¹

**Q.** Which “self-cleavage kobs at 40 uM GlcN6P” value [1] does the source give for U31A G51A U56A C58U G63U U65G here?
**A.** < 1e-05 s⁻¹

**Q.** How did the “self-cleavage kobs at 40 uM GlcN6P” value [1] turn out when A6C G44C was run?
**A.** < 1e-05 s⁻¹

**Q.** And the “self-cleavage kobs at 160 uM GlcN6P” value [2]?
**A.** < 1e-05 s⁻¹

**Q.** What about the “self-cleavage kobs at 640 uM GlcN6P” value [3] of the same variant?
**A.** < 1e-05 s⁻¹

**Q.** And the “self-cleavage kobs at 10000 uM GlcN6P” value [4]?
**A.** < 1e-05 s⁻¹

**Q.** For C10U U57G, which “self-cleavage kobs at 40 uM GlcN6P” value [1] is on record?
**A.** < 1e-05 s⁻¹

**Q.** How did the “self-cleavage kobs at 40 uM GlcN6P” value [1] turn out when A6G G35U U56A was run?
**A.** < 1e-05 s⁻¹

**Q.** Which results are given for G38U U69G?
**A.** self-cleavage kobs at 40 uM GlcN6P [1]: 0.000121 ± 1.9e-05 s⁻¹; self-cleavage kobs at 640 uM GlcN6P [3]: 9.8e-05 ± 4.7e-05 s⁻¹; self-cleavage kobs at 2500 uM GlcN6P [5]: 7.1e-05 ± 1.6e-05 s⁻¹; self-cleavage kobs at 10000 uM GlcN6P [4]: 4.47e-05 ± 9.9e-06 s⁻¹

**Q.** Which “self-cleavage kobs at 40 uM GlcN6P” value [1] does the source give for C34A A64U here?
**A.** < 1e-05 s⁻¹

**Q.** And the “self-cleavage kobs at 160 uM GlcN6P” value [2]?
**A.** < 1e-05 s⁻¹

**Q.** What about the “self-cleavage kobs at 640 uM GlcN6P” value [3] of the same variant?
**A.** < 1e-05 s⁻¹

**Q.** And the “self-cleavage kobs at 10000 uM GlcN6P” value [4]?
**A.** < 1e-05 s⁻¹

**Q.** For C8U A14G G37A A39U G40U U47A C58G U65G C70U, which “self-cleavage kobs at 40 uM GlcN6P” value [1] is on record?
**A.** < 1e-05 s⁻¹

**Q.** What about the “self-cleavage kobs at 2500 uM GlcN6P” value [5] of the same variant?
**A.** < 1e-05 s⁻¹

**Q.** What does the source list for G35A U56C A64U?
**A.** self-cleavage kobs at 40 uM GlcN6P [1]: < 1e-05 s⁻¹; self-cleavage kobs at 640 uM GlcN6P [3]: < 1e-05 s⁻¹; self-cleavage kobs at 10000 uM GlcN6P [4]: < 1e-05 s⁻¹

**Q.** For G37C U45C, which “self-cleavage kobs at 40 uM GlcN6P” value [1] is on record?
**A.** < 1e-05 s⁻¹

**Q.** And the “self-cleavage kobs at 160 uM GlcN6P” value [2]?
**A.** < 1e-05 s⁻¹

**Q.** What does the source list for G38U A64C?
**A.** self-cleavage kobs at 40 uM GlcN6P [1]: < 1e-05 s⁻¹; self-cleavage kobs at 160 uM GlcN6P [2]: < 1e-05 s⁻¹; self-cleavage kobs at 2500 uM GlcN6P [5]: < 1e-05 s⁻¹; self-cleavage kobs at 10000 uM GlcN6P [4]: < 1e-05 s⁻¹

**Q.** With C8A C58G as the variant, how does the “self-cleavage kobs at 40 uM GlcN6P” value [1] read?
**A.** < 1e-05 s⁻¹

**Q.** And the “self-cleavage kobs at 160 uM GlcN6P” value [2]?
**A.** < 1e-05 s⁻¹

**Q.** And the “self-cleavage kobs at 640 uM GlcN6P” value [3]?
**A.** < 1e-05 s⁻¹

**Q.** Which “self-cleavage kobs at 40 uM GlcN6P” value [1] does the source give for C16G A53G C67A here?
**A.** 2.96e-05 ± 1.3e-05 s⁻¹

**Q.** And the “self-cleavage kobs at 10000 uM GlcN6P” value [4]?
**A.** 0.000212 ± 5.9e-05 s⁻¹

**Q.** Which “self-cleavage kobs at 40 uM GlcN6P” value [1] does the source give for G13U A53G G63A C68U here?
**A.** < 1e-05 s⁻¹

**Q.** What about the “self-cleavage kobs at 10000 uM GlcN6P” value [4] of the same variant?
**A.** < 1e-05 s⁻¹

**Q.** What does the source list for A36U G40A?
**A.** self-cleavage kobs at 40 uM GlcN6P [1]: < 1e-05 s⁻¹; self-cleavage kobs at 10000 uM GlcN6P [4]: < 1e-05 s⁻¹

**Q.** A42C U54A was tested. Which “self-cleavage kobs at 40 uM GlcN6P” value [1] did it give?
**A.** < 1e-05 s⁻¹

**Q.** What about the “self-cleavage kobs at 160 uM GlcN6P” value [2] of the same variant?
**A.** < 1e-05 s⁻¹

**Q.** And the “self-cleavage kobs at 640 uM GlcN6P” value [3]?
**A.** < 1e-05 s⁻¹

**Q.** And the “self-cleavage kobs at 2500 uM GlcN6P” value [5]?
**A.** < 1e-05 s⁻¹

**Q.** Which “self-cleavage kobs at 40 uM GlcN6P” value [1] does the source give for G40A U55G C68G here?
**A.** < 1e-05 s⁻¹

From the supplement of paper PMC7125110
